This is an account of results in paper PMC4156824 (Molecular cell, 2014).

To fix the notation:
B1: Mcm2 (natural protein, S. cerevisiae, UniProt P29469 1-868, looked up)
chain: MSDNRRRRREEDDSDSENELPPSSPQQHFRGGMNPVSSPIGSPDMINPEGDDNEVDDVPDIDEVEEQMNEVDLMDDNMYEDYAADHNRDRYDPDQVDDREQQELSLSERRRIDAQLNERDRLLRNVAYIDDEDEEQEGAAQLDEMGLPVQRRRRRRQYEDLENSDDDLLSDMDIDPLREELTLESLSNVKANSYSEWITQPNVSRTIARELKSFLLEYTDETGRSVYGARIRTLGEMNSESLEVNYRHLAESKAILALFLAKCPEEMLKIFDLVAMEATELHYPDYARIHSEIHVRISDFPTIYSLRELRESNLSSLVRVTGVVTRRTGVFPQLKYVKFNCLKCGSILGPFFQDSNEEIRISFCTNCKSKGPFRVNGEKTVYRNYQRVTLQEAPGTVPPGRLPRHREVILLADLVDVSKPGEEVEVTGIYKNNYDGNLNAKNGFPVFATIIEANSIKRREGNTANEGEEGLDVFSWTEEEEREFRKISRDRGIIDKIISSMAPSIYGHRDIKTAVACSLFGGVPKNVNGKHSIRGDINVLLLGDPGTAKSQILKYVEKTAHRAVFATGQGASAVGLTASVRKDPITKEWTLEGGALVLADKGVCLIDEFDKMNDQDRTSIHEAMEQQSISISKAGIVTTLQARCSIIAAANPNGGRYNSTLPLAQNVSLTEPILSRFDILCVVRDLVDEEADERLATFVVDSHVRSHPENDEDREGEELKNNGESAIEQGEDEINEQLNARQRRLQRQRKKEEEISPIPQELLMKYIHYARTKIYPKLHQMDMDKVSRVYADLRRESISTGSFPITVRHLESILRIAESFAKMRLSEFVSSYDLDRAIKVVVDSFVDAQKVSVRRQLRRSFAIYTLGH
B2: Mcm4 (natural protein, S. cerevisiae, UniProt P30665 1-933, looked up)
chain: MSQQSSSPTKEDNNSSSPVVPNPDSVPPQLSSPALFYSSSSSQGDIYGRNNSQNLSQGEGNIRAAIGSSPLNFPSSSQRQNSDVFQSQGRQGRIRSSASASGRSRYHSDLRSDRALPTSSSSLGRNGQNRVHMRRNDIHTSDLSSPRRIVDFDTRSGVNTLDTSSSSAPPSEASEPLRIIWGTNVSIQECTTNFRNFLMSFKYKFRKILDEREEFINNTTDEELYYIKQLNEMRELGTSNLNLDARNLLAYKQTEDLYHQLLNYPQEVISIMDQTIKDCMVSLIVDNNLDYDLDEIETKFYKVRPYNVGSCKGMRELNPNDIDKLINLKGLVLRSTPVIPDMKVAFFKCNVCDHTMAVEIDRGVIQEPARCERIDCNEPNSMSLIHNRCSFADKQVIKLQETPDFVPDGQTPHSISLCVYDELVDSCRAGDRIEVTGTFRSIPIRANSRQRVLKSLYKTYVDVVHVKKVSDKRLDVDTSTIEQELMQNKVDHNEVEEVRQITDQDLAKIREVAAREDLYSLLARSIAPSIYELEDVKKGILLQLFGGTNKTFTKGGRYRGDINILLCGDPSTSKSQILQYVHKITPRGVYTSGKGSSAVGLTAYITRDVDTKQLVLESGALVLSDGGVCCIDEFDKMSDSTRSVLHEVMEQQTISIAKAGIITTLNARSSILASANPIGSRYNPNLPVTENIDLPPPLLSRFDLVYLVLDKVDEKNDRELAKHLTNLYLEDKPEHISQDDVLPVEFLTMYISYAKEHIHPIITEAAKTELVRAYVGMRKMGDDSRSDEKRITATTRQLESMIRLAEAHAKMKLKNVVELEDVQEAVRLIRSAIKDYATDPKTGKIDMNLVQTGKSVIQRKLQEDLSREIMNVLKDQASDSMSFNELIKQINEHSQDRVESSDIQEALSRLQQEDKVIVLGEGVRRSVRLNNRV
B3: Mcm7 (natural protein, S. cerevisiae, UniProt P38132 1-845, looked up)
chain: MSAALPSIQLPVDYNNLFNEITDFLVTFKQDTLSSDATRNENEDENLDAENIEQHLLEKGPKYMAMLQKVANRELNSVIIDLDDILQYQNEKFLQGTQADDLVSAIQQNANHFTELFCRAIDNNMPLPTKEIDYKDDVLDVILNQRRLRNERMLSDRTNEIRSENLMDTTMDPPSSMNDALREVVEDETELFPPNLTRRYFLYFKPLSQNCARRYRKKAISSKPLSVRQIKGDFLGQLITVRGIITRVSDVKPAVEVIAYTCDQCGYEVFQEVNSRTFTPLSECTSEECSQNQTKGQLFMSTRASKFSAFQECKIQELSQQVPVGHIPRSLNIHVNGTLVRSLSPGDIVDVTGIFLPAPYTGFKALKAGLLTETYLEAQFVRQHKKKFASFSLTSDVEERVMELITSGDVYNRLAKSIAPEIYGNLDVKKALLLLLVGGVDKRVGDGMKIRGDINVCLMGDPGVAKSQLLKAICKISPRGVYTTGKGSSGVGLTAAVMKDPVTDEMILEGGALVLADNGICCIDEFDKMDESDRTAIHEVMEQQTISISKAGINTTLNARTSILAAANPLYGRYNPRLSPLDNINLPAALLSRFDILFLMLDIPSRDDDEKLAEHVTYVHMHNKQPDLDFTPVEPSKMREYIAYAKTKRPVMSEAVNDYVVQAYIRLRQDSKREMDSKFSFGQATPRTLLGIIRLSQALAKLRLADMVDIDDVEEALRLVRVSKESLYQETNKSKEDESPTTKIFTIIKKMLQETGKNTLSYENIVKTVRLRGFTMLQLSNCIQEYSYLNVWHLINEGNTLKFVDDGTMDTDQEDSLVSTPKLAPQTTASANVSAQDSDIDLQDA
B4: Mcm3 (Flag-tagged subunit of Mcm2-7) (natural protein, S. cerevisiae, UniProt P24279 1-971, looked up)
chain: MEGSTGFDGDATTFFAPDAVFGDRVRRFQEFLDTFTSYRDSVRSIQVYNSNNAANYNDDQDDADERDLLGDDDGDDLEKEKKAASSTSLNILPHRIIISLDDLREFDRSFWSGILVEPAYFIPPAEKALTDLADSMDDVPHPNASAVSSRHPWKLSFKGSFGAHALSPRTLTAQHLNKLVSVEGIVTKTSLVRPKLIRSVHYAAKTGRFHYRDYTDATTTLTTRIPTPAIYPTEDTEGNKLTTEYGYSTFIDHQRITVQEMPEMAPAGQLPRSIDVILDDDLVDKTKPGDRVNVVGVFKSLGAGGMNQSNSNTLIGFKTLILGNTVYPLHARSTGVAARQMLTDFDIRNINKLSKKKDIFDILSQSLAPSIYGHDHIKKAILLMLMGGVEKNLENGSHLRGDINILMVGDPSTAKSQLLRFVLNTASLAIATTGRGSSGVGLTAAVTTDRETGERRLEAGAMVLADRGVVCIDEFDKMTDVDRVAIHEVMEQQTVTIAKAGIHTTLNARCSVIAAANPVFGQYDVNRDPHQNIALPDSLLSRFDLLFVVTDDINEIRDRSISEHVLRTHRYLPPGYLEGEPVRERLNLSLAVGEDADINPEEHSNSGAGVENEGEDDEDHVFEKFNPLLQAGAKLAKNKGNYNGTEIPKLVTIPFLRKYVQYAKERVIPQLTQEAINVIVKNYTDLRNDDNTKKSPITARTLETLIRLATAHAKVRLSKTVNKVDAKVAANLLRFALLGEDIGNDIDEEESEYEEALSKRSPQKSPKKRQRVRQPASNSGSPIKSTPRRSTASSVNATPSSARRILRFQDDEQNAGEDDNDIMSPLPADEEAELQRRLQLGLRVSPRRREHLHAPEEGSSGPLTEVGTPRLPNVSSAGQDDEQQQSVISFDNVEPGTISTGRLSLISGIIARLMQTEIFEEESYPVASLFERINEELPEEEKFSAQEYLAGLKIMSDRNNLMVADDKVWRV

Assay [1] deals with B4. The assay is described as follows: co-IP.
The target of assay [2] is Mcm6 (S. cerevisiae, UniProt P53091 1-1017). Description: co-IP.
Sequence of Mcm6 (P53091 whole entry): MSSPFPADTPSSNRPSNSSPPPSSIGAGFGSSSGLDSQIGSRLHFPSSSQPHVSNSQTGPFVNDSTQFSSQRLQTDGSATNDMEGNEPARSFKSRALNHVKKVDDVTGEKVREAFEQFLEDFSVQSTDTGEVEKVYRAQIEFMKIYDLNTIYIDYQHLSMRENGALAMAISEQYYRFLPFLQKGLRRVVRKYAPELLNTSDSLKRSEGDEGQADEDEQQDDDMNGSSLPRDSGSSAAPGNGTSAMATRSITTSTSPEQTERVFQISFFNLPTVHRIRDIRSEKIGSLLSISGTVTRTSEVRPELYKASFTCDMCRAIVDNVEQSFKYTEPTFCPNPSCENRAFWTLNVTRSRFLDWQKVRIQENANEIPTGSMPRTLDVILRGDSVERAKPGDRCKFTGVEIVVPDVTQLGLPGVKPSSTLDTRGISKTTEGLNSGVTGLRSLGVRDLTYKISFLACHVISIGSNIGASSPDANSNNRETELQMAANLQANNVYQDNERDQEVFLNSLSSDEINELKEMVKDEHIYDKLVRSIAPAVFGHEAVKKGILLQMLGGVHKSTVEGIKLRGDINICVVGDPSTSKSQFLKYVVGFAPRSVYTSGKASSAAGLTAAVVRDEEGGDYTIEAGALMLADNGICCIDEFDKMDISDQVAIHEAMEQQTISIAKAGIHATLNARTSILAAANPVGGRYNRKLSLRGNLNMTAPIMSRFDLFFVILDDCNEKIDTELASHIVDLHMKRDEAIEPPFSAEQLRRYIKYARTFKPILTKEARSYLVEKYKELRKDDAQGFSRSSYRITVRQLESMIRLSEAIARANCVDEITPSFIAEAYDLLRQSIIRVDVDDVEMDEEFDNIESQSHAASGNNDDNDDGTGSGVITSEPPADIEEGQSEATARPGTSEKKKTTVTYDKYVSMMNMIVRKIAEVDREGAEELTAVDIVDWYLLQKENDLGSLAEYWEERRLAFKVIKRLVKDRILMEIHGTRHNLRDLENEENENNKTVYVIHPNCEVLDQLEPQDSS

As to B1, the binding result in assay [1] is “binds”. On the same count and under the same terms, in the case of B2 it was “binds”. Same read-out and setting: in the case of B3 it was “binds”. As for B4, the binding result in assay [2] is listed as “binds”.
